Test results: article PMC2872118 (Nature, 2009)

Target: the molecule itself
Assay: native gel or EMSA

B1: PksA SAT-KS-MAT tridomain (domain or fragment)
chain: MAQSRQLFLFGDQTADFVPKLRSLLSVQDSPILAAFLDQSHYVVRAQMLQSMNTVDHKLARTADLRQMVQKYVDGKLTPAFRTALVCLCQLGCFIREYEESGNMYPQPSDSYVLGFCMGSLAAVAVSCSRSLSELLPIAVQTVLIAFRLGLCALEMRDRVDGCSDDRGDPWSTIVWGLDPQQARDQIEVFCRTTNVPQTRRPWISCISKNAITLSGSPSTLRAFCAMPQMAQHRTAPIPICLPAHNGALFTQADITTILDTTPTTPWEQLPGQIPYISHVTGNVVQTSNYRDLIEVALSETLLEQVRLDLVETGLPRLLQSRQVKSVTIVPFLTRMNETMSNILPDSFISTETRTDTGRAIPASGRPGAGKCKLAIVSMSGRFPESPTTESFWDLLYKGLDVCKEVPRRRWDINTHVDPSGKARNKGATKWGCWLDFSGDFDPRFFGISPKEAPQMDPAQRMALMSTYEAMERAGLVPDTTPSTQRDRIGVFHGVTSNDWMETNTAQNIDTYFITGGNRGFIPGRINFCFEFAGPSYTNDTACSSSLAAIHLACNSLWRGDCDTAVAGGTNMIYTPDGHTGLDKGFFLSRTGNCKPYDDKADGYCRAEGVGTVFIKRLEDALADNDPILGVILDAKTNHSAMSESMTRPHVGAQIDNMTAALNTTGLHPNDFSYIEMHGTGTQVGDAVEMESVLSVFAPSETARKADQPLFVGSAKANVGHGEGVSGVTSLIKVLMMMQHDTIPPHCGIKPGSKINRNFPDLGARNVHIAFEPKPWPRTHTPRRVLINNFSAAGGNTALIVEDAPERHWPTEKDPRSSHIVALSAHVGASMKTNLERLHQYLLKNPHTDLAQLSYTTTARRWHYLHRVSVTGASVEEVTRKLEMAIQNGDGVSRPKSKPKILFAFTGQGSQYATMGKQVYDAYPSFREDLEKFDRLAQSHGFPSFLHVCTSPKGDVEEMAPVVVQLAITCLQMALTNLMTSFGIRPDVTVGHSLGEFAALYAAGVLSASDVVYLVGQRAELLQERCQRGTHAMLAVKATPEALSQWIQDHDCEVACINGPEDTVLSGTTKNVAEVQRAMTDNGIKCTLLKLPFAFHSAQVQPILDDFEALAQGATFAKPQLLILSPLLRTEIHEQGVVTPSYVAQHCRHTVDMAQALRSAREKGLIDDKTLVIELGPKPLISGMVKMTLGDKISTLPTLAPNKAIWPSLQKILTSVYTGGWDINWKKYHAPFASSQKVVDLPSYGWDLKDYYIPYQGDWCLHRHQQDCKCAAPGHEIKTADYQVPPESTPHRPSKLDPSKEAFP
For B1, the “stoichiometry N” value was 2.
